Assay results: paper PMC6406557, “Lysozyme Aptamer-Functionalized Magnetic Nanoparticles for the Purification of Lysozyme from Chicken Egg White”

Legend:
lysozyme = lysozyme (chicken (Gallus gallus)?, UniProt P00698 19-147); assay: pull-down on aptamer-functionalized magnetic nanoparticles (adsorption, A280); capacity 460 +/- 3.4 mg/g at pH 9.0, 37 C, 0 M NaCl; bare Fe3O4 218.39 and NH2-Fe3O4 211.35 mg/g, so part is non-aptamer adsorption; Adsorption optimum: 4.0 mg/mL lysozyme, 60 min, pH 9.0, 37 C, 0 M NaCl; egg white: mixed 1:1 with 20 mM PBS pH 7.2-8.0, 10 mg NPs per mL, 37 C, 60 min; details: protein: commercial
lysozyme from egg white = lysozyme from egg white (chicken, UniProt P00698 19-147); assay: pull-down from egg white on aptamer-functionalized magnetic nanoparticles, SDS-PAGE; 113 +/- 4.2 mg/g from egg white; Adsorption optimum: 4.0 mg/mL lysozyme, 60 min, pH 9.0, 37 C, 0 M NaCl; egg white: mixed 1:1 with 20 mM PBS pH 7.2-8.0, 10 mg NPs per mL, 37 C, 60 min; details: protein: native
Sequence of lysozyme from egg white (P00698 19-147): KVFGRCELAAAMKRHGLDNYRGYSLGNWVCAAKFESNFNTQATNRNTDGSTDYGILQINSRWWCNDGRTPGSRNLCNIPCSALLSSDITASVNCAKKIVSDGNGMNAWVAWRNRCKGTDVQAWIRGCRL

Sequence of lysozyme (P00698 19-147): as above

## TTTTTTATCAGGGCTAAAGAGTGC (ssDNA, 5'-aldehyde, coupled as imine to NH2-Fe3O4 nanoparticles) [lysozyme aptamer]
lysozyme
  binding result: binds
Lysozyme from egg white
  binding result: binds
